From patent US9708382B2, “Peptide library” (Daiichi Sankyo Company, Limited, priority 2011, dated 2017)

Assays:
[1] = molecular target: T1, Recombinant Mouse EphA2/Fc Chimera (mEphA2/Fc) (Mus musculus, UniProt Q03145); assay: Phage ELISA on solid-phase immobilized mEphA2/Fc; assay type: binding; settings: phage-displayed peptide, compared with wild-type TACI_d2
T1 construct: purchased R&D systems, Inc
Description: (§1) As to 3 clones (α-EphA2 #1 to #3: corresponding to SEQ ID NOs: 3 to 5, respectively, in the Sequence Listing and to Nos. 2 to 4, respectively in FIG. 4) selected from the Escherichia coli colonies after the final round of panning with hEphA2 as a target molecule, an Escherichia coli suspension with OD600 nm=0.3 was prepared using 2×YT/Amp/1% Glu. The Escherichia coli cells of each clone were shake-cultured at 37° C. and allowed to grow until OD600 nm=0.5. A sufficient amount of helper phages M13K07 was added thereto to infect the cells at 37° C. for 30 minutes. After addition of 2×YT/Amp/Kan/0.25 mM IPTG, the helper phage-infected Escherichia coli was shake-cultured overnight at 22° C. 20% PEG/2.5 M NaCl solution was added to the recovered culture supernatant to precipitate phages. The precipitated phages were suspended in PBS. This phage stock solution and a series of two-fold dilutions with PBS were used in phage ELISA. An Escherichia coli TG-1 strain having a pCANTAB 5E vector containing the wild-type TACI_d2 gene was also subjected to the same operation as above to prepare phages.
Each of hEphA2, BSA, Recombinant Human BAFF/BLyS/TNFSF13B (R&D systems, Inc.; a polypeptide consisting of amino acids from Ala at position 134 to Leu at position 285 in human BAFF (UniProtKB/Swiss-Prot Accession # Q9Y275) and containing an N-terminally linked histidine tag, etc.; hereinafter referred to as “hBAFF”), and Recombinant Mouse EphA2/Fc Chimera, CF (R&D systems, Inc.; a polypeptide consisting of amino acids from Ala at position 22 to Ala at position 535 in mouse EphA2 (NCBI Accession No. #AAA82113) and containing a C-terminally linked Fc region (from Pro at position 100 to Lys at position 330) of human immunoglobulin G1 (hereinafter, referred to as “hIgG1”); hereinafter, referred to as “mEphA2/Fc”) was added to a Maxisorp plate and solid-phase immobilized overnight at 4° C. […] After washing of the Maxisorp plate with TBST again, the amount of a phage bound with the protein solid-phase immobilized on the plate was detected as absorbance at a wavelength of 405 nm using ELISA POD.

[2] = molecular target: T2, human EphA2 expressed on cell surface (Homo sapiens, UniProt P29317); assay: Flow cytometry binding to human EphA2-expressing HEK293T cells; assay type: cell-based; settings: phage-displayed peptide, HEK293T cells transfected with human EphA2, human ErbB2-expressing cells as negative control
T2 construct: expressed in transfected cells; host or cells: HEK293T
Description: Human embryonic kidney cells (HEK293T cells) were cultured at 37° C. in the presence of 5% CO2 using a Dulbecco's modified eagle's medium (hereinafter, referred to as “DMEM”; manufactured by GIBCO, Life Technologies Corp.) containing 10% fetal bovine serum (FBS) (hereinafter, this medium is referred to as “DMEM-10% FBS”). For use in transfection or flow cytometry, the cells were dissociated from the plate for culture using 0.05% trypsin-EDTA (GIBCO), and the cell suspension was then centrifuged to recover cells, which were then resuspended in DMEM-10% FBS and used.
The HEK293T cells were transfected with a pcDNA-DEST40 Gateway vector (manufactured by Invitrogen Corp.) having an insert of the human EphA2 gene or the human ErbB2 gene as a negative control using Lipofectamine 2000 (manufactured by Invitrogen Corp.) according to the instructions.
The transfected cells were recovered. The recovered cells were suspended in a FACS buffer (PBS containing 5% FBS) and applied to a nylon mesh. The solution was dispensed in an amount of 5×10^5 cells/well to 96 Well Cell Culture Cluster Round Bottom With Lid (manufactured by Costar, Corning Inc.) and centrifuged to remove a supernatant. The phage stock solution prepared in the paragraph 1) of Example 4 was added to the resulting cells at a concentration of 50 μL/well, and the mixture was left standing at 4° C. for 30 minutes. A FACS buffer was added thereto at a concentration of 150 μL/well, and the mixture was centrifuged to remove a supernatant. Again, a FACS buffer was added thereto at a concentration of 200 μL/well, and the mixture was centrifuged to remove a supernatant (hereinafter, cells were washed in the same way as this operation). An Anti-M13 antibody diluted 100-fold was added to the obtained cells at a concentration of 50 μL/well as a primary antibody, and the mixture was left standing at 4° C. for 30 minutes, followed by washing of the cells. Subsequently, FLUORESCEIN-CONJUGATED GOAT IGG FRACTION TO MOUSE IGG (manufactured by Cappel, MP Biomedicals, LLC) diluted 1000-fold was added thereto as a secondary antibody, and the mixture was left standing at 4° C. for 30 minutes, followed by washing of the cells. The obtained cells were suspended in 250 μL of a FACS buffer and subjected to Cytomics FC 500 Flow Cytometry System (manufactured by Beckman Coulter, Inc.). Fluorescently stained cells were detected.

[3] = molecular target: T3, Recombinant Human BAFF/BLyS/TNFSF13B (hBAFF) (Homo sapiens, UniProt Q9Y275); assay: Phage ELISA on solid-phase immobilized hBAFF; assay type: binding; settings: phage-displayed peptide, absorbance at 405 nm
T3 construct: amino acids from Ala at position 134 to Leu at position 285 in human BAFF; histidine tag (N); purchased R&D systems, Inc
Description: as §1, with “prepare phages. […]” for “prepare phages.”

[4] = molecular target: T4, APRIL (Homo sapiens, UniProt O75888); settings: compared with whole extracellular region (TACI_d1d2); cited from earlier work
T4 sequence (O75888 105-250): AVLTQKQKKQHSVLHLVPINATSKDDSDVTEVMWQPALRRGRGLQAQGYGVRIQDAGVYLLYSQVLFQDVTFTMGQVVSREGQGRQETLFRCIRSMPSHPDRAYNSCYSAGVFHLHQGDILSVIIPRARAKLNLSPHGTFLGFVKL

[5] = molecular target: BAFF (Homo sapiens, UniProt Q9Y275); settings: compared with whole extracellular region (TACI_d1d2); cited from earlier work
Sequence of BAFF (Q9Y275 134-285 limits assumed, species assumed): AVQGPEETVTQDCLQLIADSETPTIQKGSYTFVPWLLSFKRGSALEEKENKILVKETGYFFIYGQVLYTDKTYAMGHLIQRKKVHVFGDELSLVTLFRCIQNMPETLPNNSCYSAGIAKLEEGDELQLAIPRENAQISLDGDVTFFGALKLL

T2 sequence (P29317 24-976): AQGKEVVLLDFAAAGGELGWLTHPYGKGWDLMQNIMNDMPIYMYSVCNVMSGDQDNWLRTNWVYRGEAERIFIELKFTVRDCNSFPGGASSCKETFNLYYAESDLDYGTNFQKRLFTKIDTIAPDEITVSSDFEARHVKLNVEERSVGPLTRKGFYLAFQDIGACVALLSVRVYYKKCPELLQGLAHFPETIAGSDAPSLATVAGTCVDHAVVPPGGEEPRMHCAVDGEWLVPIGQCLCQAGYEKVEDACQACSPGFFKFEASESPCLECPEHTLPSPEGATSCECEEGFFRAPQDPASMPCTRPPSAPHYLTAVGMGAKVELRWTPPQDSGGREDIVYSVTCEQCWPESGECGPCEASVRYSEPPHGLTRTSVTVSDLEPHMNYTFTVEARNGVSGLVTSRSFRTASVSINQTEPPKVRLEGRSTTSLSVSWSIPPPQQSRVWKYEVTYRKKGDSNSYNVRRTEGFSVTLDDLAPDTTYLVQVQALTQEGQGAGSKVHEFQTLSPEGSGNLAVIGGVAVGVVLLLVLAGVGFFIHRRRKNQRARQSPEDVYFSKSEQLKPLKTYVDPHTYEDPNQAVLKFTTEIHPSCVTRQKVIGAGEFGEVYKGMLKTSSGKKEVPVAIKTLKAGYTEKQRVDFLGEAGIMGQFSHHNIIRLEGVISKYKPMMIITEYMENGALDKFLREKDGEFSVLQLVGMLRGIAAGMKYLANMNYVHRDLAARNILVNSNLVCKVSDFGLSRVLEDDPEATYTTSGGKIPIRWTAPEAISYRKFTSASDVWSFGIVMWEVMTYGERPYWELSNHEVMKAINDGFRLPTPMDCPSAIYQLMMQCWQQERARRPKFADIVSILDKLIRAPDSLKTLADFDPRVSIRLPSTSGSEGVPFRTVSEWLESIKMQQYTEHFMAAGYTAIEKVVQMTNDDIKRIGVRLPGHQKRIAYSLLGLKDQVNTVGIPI
T1 sequence (Q03145 22-535, change not shown): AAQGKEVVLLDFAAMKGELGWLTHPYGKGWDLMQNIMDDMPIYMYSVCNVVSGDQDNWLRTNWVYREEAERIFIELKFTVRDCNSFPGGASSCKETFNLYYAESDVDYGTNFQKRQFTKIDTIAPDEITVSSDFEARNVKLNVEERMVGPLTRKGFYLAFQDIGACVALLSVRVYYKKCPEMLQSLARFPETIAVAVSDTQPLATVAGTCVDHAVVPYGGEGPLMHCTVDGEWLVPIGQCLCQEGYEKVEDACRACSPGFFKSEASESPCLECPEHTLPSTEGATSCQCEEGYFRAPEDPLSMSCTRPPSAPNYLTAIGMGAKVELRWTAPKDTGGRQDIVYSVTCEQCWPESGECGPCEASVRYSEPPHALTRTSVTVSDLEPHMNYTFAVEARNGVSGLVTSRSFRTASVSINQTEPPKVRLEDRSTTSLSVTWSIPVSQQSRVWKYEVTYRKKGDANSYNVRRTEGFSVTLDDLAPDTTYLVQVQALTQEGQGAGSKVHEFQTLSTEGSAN
T3 sequence (Q9Y275 134-285): as the sequence (Q9Y275 134-285 limits assumed, species assumed) above

Row | Substance | cross reactivity to mEphA2 [1] | binding to human EphA2 expressed on cell surface [2] | binding to human EphA2 expressed on cell surface ([2]; listed as α-EphA2 TACI_d2 #2) | binding to human EphA2 expressed on cell surface ([2]; listed as α-EphA2 TACI_d2 #1) | binding to the endogenous ligand hBAFF [3] | binding activity against APRIL [4] | binding activity against BAFF [5]
1 | SLSCRKEQGKHYLLKEYDCDSCASECGYHPDYCAYFCEN (Amino acid sequence of human EphA2-binding peptide a-EphA2 #3) [α-EphA2 #3] | cross reactivity to mEphA2 at a level equivalent to wild-type TACI_d2 |  |  |  |  |  | 
2 | SLSCRKEQGKMYLLKEWDCASCASACGNHPHYCAYFCEN (Amino acid sequence of human EphA2-binding peptide a-EphA2 #2) [α-EphA2 #2] | cross reactivity to mEphA2 at a level equivalent to wild-type TACI_d2 | bound | specifically bound |  |  |  | 
3 | SLSCRKEQGKQYLLREWDCDSCASECGSHPHYCAYFCEN (Amino acid sequence of human EphA2-binding peptide a-EphA2 #1) [α-EphA2 #1] | stronger cross reactivity | bound |  | specifically bound |  |  | 
4 | wild-type TACI_d2: wild-type C-terminal cysteine-rich domain of TACI, binds APRIL and BAFF |  |  |  |  | bind to the endogenous ligand hBAFF | equivalent to the binding activity of the whole extracellular region (TACI_d1d2) | equivalent to the binding activity of the whole extracellular region (TACI_d1d2)
